The record followed here is US20180022822A1, “NOVEL ANTI-FIBROBLAST ACTIVATION PROTEIN (FAP) BINDING AGENTS AND USES THEREOF” (Mabimmune Diagnostics AG, priority 2016, published 2018).

Assay [1] has as its system human blood plasma clotting. Kind of assay: rotational thromboelastometry (ROTEM, NATEM) of human blood plasma. Here is the method: Two batches of peripheral blood were taken from a single healthy subject in sodium citrate tubes and platelet-free blood plasma was prepared by centrifugation. Blood plasma from each tube was pooled and immediately aliquoted for storage at −80° C. The plasma has an FAP level of 130 ng/ml by ELISA. Plasma samples were treated with NI-206.82C2 (n=3) against FAP or 43A11 control (n=3) diluted in sterile saline and added to fresh fast thawed plasma such that the final concentration of antibody in the sample was 0.000667 nM, 0.00667 nM, 0.0667 nM, 0.667 nM 6.667 nM of plasma. Following 1 hr incubation with the antibody at 37° C., NATEM analysis was performed according to the manufacturer's instructions by using STAR-TEM reagent to observe the native blood clotting process after an incubation time with the antibodies of 1 h at 37° C. with the antibody before starting measurement. Statistical analysis was performed using a two-way ANOVA (*p<0.05, ** p<0.01, *** p<0.005, **** p<0.001).

In assay [2] the target is T1, FAP in human plasma (Homo sapiens, UniProt Q12884).
T1 construct: from tissue; host or cells: human blood plasma
T1 sequence (Q12884 24-760 limits assumed): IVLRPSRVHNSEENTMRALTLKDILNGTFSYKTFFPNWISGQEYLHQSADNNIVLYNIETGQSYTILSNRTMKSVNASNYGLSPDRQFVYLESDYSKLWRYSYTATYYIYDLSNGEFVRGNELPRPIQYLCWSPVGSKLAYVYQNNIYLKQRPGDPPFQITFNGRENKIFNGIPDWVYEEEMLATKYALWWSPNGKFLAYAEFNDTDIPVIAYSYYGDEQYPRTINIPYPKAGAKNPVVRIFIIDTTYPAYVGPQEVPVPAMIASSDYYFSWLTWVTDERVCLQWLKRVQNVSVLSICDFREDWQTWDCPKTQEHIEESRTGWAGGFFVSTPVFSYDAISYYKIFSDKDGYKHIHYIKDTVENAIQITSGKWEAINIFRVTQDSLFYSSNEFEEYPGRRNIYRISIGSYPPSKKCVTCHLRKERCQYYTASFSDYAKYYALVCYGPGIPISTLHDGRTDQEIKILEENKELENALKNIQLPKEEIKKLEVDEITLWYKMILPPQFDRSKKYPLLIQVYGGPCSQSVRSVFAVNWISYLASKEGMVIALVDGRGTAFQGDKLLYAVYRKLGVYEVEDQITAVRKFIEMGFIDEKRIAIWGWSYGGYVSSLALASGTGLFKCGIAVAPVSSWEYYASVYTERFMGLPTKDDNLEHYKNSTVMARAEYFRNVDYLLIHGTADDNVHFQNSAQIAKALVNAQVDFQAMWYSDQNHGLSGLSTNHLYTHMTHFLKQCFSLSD
Kind of assay: immunoprecipitation of FAP from human plasma, α2AP-AMC cleavage. The class given is biochemical. The following applies: compared to plasma before immunoprecipitation. On the procedure: 100 μL of PureProteome G Magnetic Beads (Millipore LSKMAGG02) were suspended in 500 μL of 25 mM TRIS, 0.15M NaCl, and 0.1% Tween 20. Human plasma was diluted 1:5 in PBS to an end volume of 125 μL, separated into four tubes, and incubated for 30 min at RT with rotation. Beads were then collected with a magnetic stand, and the pre-cleared supernatant was transferred to a new tube containing magnetic beads coated with 82C2, 43A11, or 3A1. Antibody-conjugated beads were incubated with the plasma dilution overnight at 4° C. while rotating. Beads were then collected with a magnetic stand and the supernatant was removed of analysis of α2AP-AMC cleavage activity. To determine α2AP-AMC activity in the supernatants, a half area black 96 well plate was blocked with sterile filtered 5% BSA at 37° C. for 1 h. Then 40 μL of PBS was added to all the wells, 5 μL of the supernatant solutions to the appropriate wells, and 5 μL of α2AP-AMC solution in methanol was added for a final assay concentration of 10 μM. The fluorescence intensity (cleaved AMC) was measured at 360 nm excitation and 460 nm emission every 3 min over a total time of 30 min and the reaction velocity was calculated using Graphpad Prism 6 software.

For assay [3], the system named is MOPC315.BM multiple myeloma cells and tumor stroma. Briefly: immunofluorescence on murine multiple myeloma bone tissue. To be noted: Cy5 labelled antibody, bone sections. Also on record: species or system mouse. On the procedure:
BALB/c mice were injected with 2×10^6 of the murine multiple myeloma cell line […] intravenously. BALB/c mice were injected with a vehicle-only control. Bone tissue was harvested and fixed in 4% PFA, decalcified in 10% EDTA (pH 7.4), embedded in paraffin before being sectioned (4 μm) and rehydrated. Then, CD138 mAb (Clone 281-2, BD Pharmingen) and Cy5 labelled NI-206.82C2 were used to identify MOPC315.BM.Luc cell infiltration, and NI-206.82C2 binding to these cells and surrounding stromal cells in the tissue sections. Stained tissue sections were then imaged using a fluorescent microscope (FIG. 13).

[4] abbreviates: increasing antibody concentrations.

B1: NI-206.82C2: human-derived recombinant anti-FAP antibody; VH SEQ ID NO: 2 or 4 (PIMC), VL SEQ ID NO: 6 (antibody, V domains shown)
VH: QVQLQQSGPGLVKPSQTLSLTCAISGDSVSSNSVTWNWIRQSPSRGLEWLGRTYYRSKWYNDYAVSVKGRITINPDTSKNQFYLQLKSVTPEDAAVYYCARDSSILYGDYWGQGTLVTVSS
VL: QAVLTQPSSLSASPGASASLTCTLPSGINVGTYRIFWFQQKPGSPPQYLLSYKSDSDNHQGSGVPSRFSGSKDASANAGILLISGLQSEDEADYYCMIWHSSAWVFGGGTKLTVL
Take B1: the clot formation time result in assay [1] (0.000667-6.667 nM antibody) is recorded as “dose dependent prolongation”. In addition, in assay [1] (setting [4]), the clot rigidity entry is recorded as “reduces”, the maximum clot elasticity entry is reported as “decreases” and the maximum clotting angle result is reported as “reduces”. Further, the “rate of α2AP-AMC cleavage in plasma after immunoprecipitation” value in assay [2] is on record as “significantly reduces”. Besides, in assay [3], the “binding in the syngeneic MOPC315.BM mouse model” value was “binds to multiple myeloma cells and tumor stroma”.
